Columns and labels:
[1] = molecular target: T1, LRP6 double mutant (K662A/K684A) on HEK293 cells (human, UniProt O75581 20-1613); assay: flow cytometry on transfected HEK293 cells
T1 construct: whole, on cells; Made by site-directed mutagenesis of the LRP6 construct in pCMV-Entry and transfected into HEK293 cells
Procedure: FIG. 1F is a graph showing fine epitope mapping by alanine scanning of LRP6 and the effect of the alanine substitutions on binding of the 66 antibody. LRP6 single mutants and the double mutant (K662A/K684A) were separately transfected into HEK293 cells. An anti-LRP6 scFv-Fc fusion that binds to the LRP6-P1 domain was used as a control to confirm cell surface expression of LRP6. Binding of the 66 antibody was determined by flow cytometry, and median fluorescence intensity (MFI) values were normalized against MFI of the P1-binding scFv-Fc.
To map the binding site further, the binding of the 66 antibody to LRP6 was modeled using a homology modeling-predicted structure for the 66 Fv and two known crystal structures of LRP6 (3S8Z and 4A0P: FIGS. 8A and 8B, respectively). Several potential 66 contact sites were identified on LRP6. Alanine scan mutagenesis was performed at those sites. Alanine mutants of LRP6 ectodomain were constructed using QuikChange Site-Directed Mutagenesis Kit (Agilent Technologies) according to the manufacturer's protocol. Binding of the 66 IgG to these LRP6 mutants was analyzed by flow cytometry. K662A and K684A single mutations caused a significant loss of 66 binding (FIG. 1F).

[2] = molecular target: T2, human LRP6 (low density lipoprotein receptor-related protein 6), full length on HEK293 cells (human, UniProt O75581 20-1613); assay: flow cytometry on HEK293 cells; apparent KD by curve fitting of MFI
T2 construct: whole, on cells; also called wild-type LRP6 (WT); LRP6 full-length
Procedure: (§1) HEK293 cells were transfected with LRP6 expression plasmid and incubated with 66 or E34N19 scFv-phage for 1 hour. E34N19 was identified previously as a Wnt antagonist binding to the P3E3P4E4 domain (Lee et al., 2018). The E34N19 IgG was simultaneously added as a competitor. Bound phages were detected by sequential incubation of mouse anti-fd IgG and PE-labeled anti-mouse IgG. FIG. 7A is a graph showing the dissociation curve of the 66 antibody. HEK293 cells were incubated with varying concentrations of 66 IgG, and the binding was analyzed by flow cytometry. […] As a positive control, the E34N19E IgG competes with the E34N19E scFv-phage.
(§2) The apparent KD of antibodies was analyzed by FACS as described (Lee et al., 2018). Briefly, cells were trypsinized, washed, and resuspended in FACS buffer (PBS, 1% FBS). Antibodies serially diluted in FACS buffer were incubated with target cells (3×10⁵ cells/tube) overnight at 4° C. Cells were washed, incubated with Alexa Fluor® 647-labeled goat anti-human IgG (Jackson ImmunoResearch). 1 hour post incubation, cells were washed in PBS and analyzed using a BD Accuri C6 flow cytometer (BD Biosciences). Median Fluorescence Intensity (MFI) values were analyzed by curve fitting (GraphPad) to determine the affinity.

[3] = molecular target: T2, human LRP6 (low density lipoprotein …); assay: flow cytometry titration of 66 IgG on HEK293 cells
Procedure: as §1, §2

[4] = molecular target: T2, human LRP6 (low density lipoprotein …); assay: cell-based or functional assay
[5] = molecular target: T3, recombinant mouse LRP6 extracellular domain (mouse, UniProt O88572 20-1370); assay: ELISA on recombinant mouse LRP6 extracellular domain
T3 construct: extracellular domain; also called mouse LRP6 ectodomain
T3 sequence (looked up): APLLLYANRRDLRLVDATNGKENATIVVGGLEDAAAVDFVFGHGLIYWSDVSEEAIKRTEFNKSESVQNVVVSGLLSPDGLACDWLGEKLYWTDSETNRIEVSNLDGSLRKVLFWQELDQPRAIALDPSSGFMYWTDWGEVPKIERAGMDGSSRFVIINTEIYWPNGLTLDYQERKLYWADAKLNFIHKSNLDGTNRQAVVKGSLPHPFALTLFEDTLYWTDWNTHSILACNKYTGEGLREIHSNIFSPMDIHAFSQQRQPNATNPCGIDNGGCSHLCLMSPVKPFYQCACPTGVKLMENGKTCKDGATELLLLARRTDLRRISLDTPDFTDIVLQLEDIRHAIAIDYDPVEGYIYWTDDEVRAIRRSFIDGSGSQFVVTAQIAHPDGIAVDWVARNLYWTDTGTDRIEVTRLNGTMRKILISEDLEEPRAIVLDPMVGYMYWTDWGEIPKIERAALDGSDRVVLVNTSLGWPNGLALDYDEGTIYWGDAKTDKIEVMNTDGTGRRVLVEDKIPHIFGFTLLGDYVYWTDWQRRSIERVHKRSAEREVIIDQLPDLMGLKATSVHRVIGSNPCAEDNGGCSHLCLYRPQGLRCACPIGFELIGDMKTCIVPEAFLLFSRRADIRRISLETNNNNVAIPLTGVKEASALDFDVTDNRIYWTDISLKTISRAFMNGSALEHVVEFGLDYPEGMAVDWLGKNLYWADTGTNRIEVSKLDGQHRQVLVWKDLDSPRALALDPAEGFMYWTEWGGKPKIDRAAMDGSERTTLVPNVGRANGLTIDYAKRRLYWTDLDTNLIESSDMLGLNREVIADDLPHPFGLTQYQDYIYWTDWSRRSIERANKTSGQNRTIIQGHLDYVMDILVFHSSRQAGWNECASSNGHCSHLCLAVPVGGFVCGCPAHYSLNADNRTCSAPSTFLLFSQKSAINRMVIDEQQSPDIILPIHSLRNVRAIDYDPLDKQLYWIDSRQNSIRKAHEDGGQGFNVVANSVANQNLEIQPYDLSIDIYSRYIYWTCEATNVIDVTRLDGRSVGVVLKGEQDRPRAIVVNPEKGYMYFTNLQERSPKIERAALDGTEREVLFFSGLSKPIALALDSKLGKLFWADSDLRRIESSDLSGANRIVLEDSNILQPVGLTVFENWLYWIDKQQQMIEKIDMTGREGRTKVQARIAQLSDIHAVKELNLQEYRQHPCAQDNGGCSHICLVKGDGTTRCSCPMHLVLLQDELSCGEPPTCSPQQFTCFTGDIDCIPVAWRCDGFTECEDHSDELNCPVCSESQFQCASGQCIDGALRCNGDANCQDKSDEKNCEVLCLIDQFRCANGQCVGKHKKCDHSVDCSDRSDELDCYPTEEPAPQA

B1: 66 IgG (Wnt-agonist human monoclonal antibody 66) (antibody, V domains shown)
VH: QVQLLQSGGGLVQPGGSLRLSCAASGFTFSTYAMSWVRQAPGKGLEWVSTIGPSGSSTYYAYADSVKGRFTISRDNYKNMLYLQMNSLRAEDTAVYYCAKEGPNSGYFDFDYWGQGTLVTVSS
VL: EIVLTQSPSSLSASVGDRVTITCRASQSISTYLNWYQQKPGKAPKVLIYAASSLQSGVPSRISGSGSGTDFTLTISSLQPEDFATYYCQQSYSIPLTFGGGTKLEIK
notes: also called 66 antibody; agonist 66 IgG
binding result [1]: no binding
Kd [2]: ~5 nM
EC50 (read off the curve) [3]: ~5 nM
EC50, STF reporter on HEK293 cells without Wnt ligands [4]: 13.4 nM
EC50, Wnt1-mediated beta-catenin signaling (STF reporter) with RSPO2 (5 nM) [4]: 1.8 nM
EC50, Wnt3a-mediated beta-catenin signaling (STF reporter) with RSPO2 (5 nM) [4]: 4.8 nM
binding result [5]: binds
